Measured values from article PMC2633621 (Nature chemical biology, 2008).
Where a chain is given by its changes, count along the chain named. Names may count otherwise.

T1: I211R mutant Kvβ2 expressed in complex with the T1 domain (rat, UniProt P62483 36-367, I211R)
T1 sequence (looked up): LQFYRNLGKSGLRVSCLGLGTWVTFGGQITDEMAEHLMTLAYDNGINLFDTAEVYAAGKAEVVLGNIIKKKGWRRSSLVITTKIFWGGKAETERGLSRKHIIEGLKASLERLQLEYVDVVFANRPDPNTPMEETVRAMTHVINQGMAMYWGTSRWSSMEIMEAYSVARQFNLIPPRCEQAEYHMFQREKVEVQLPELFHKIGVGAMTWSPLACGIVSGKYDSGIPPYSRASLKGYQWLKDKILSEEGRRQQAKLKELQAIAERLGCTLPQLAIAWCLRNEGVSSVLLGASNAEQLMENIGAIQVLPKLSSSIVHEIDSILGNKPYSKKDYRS

B1: T1 domain of Kv1.1 (residues 2 to 135), fusion with N-terminal 6-histidine tag and SUMO protein (domain or fragment, rat, UniProt P10499 2-135, looked up)
chain: TVMSGENADEASAAPGHPQDGSYPRQADHDDHECCERVVINISGLRFETQLKTLAQFPNTLLGNPKKRMRYFDPLRNEYFFDRNRPSFDAILYYYQSGGRLRRPVNVPLDMFSEEIKFYELGEEAMEKFREDEG
B2: Kvβ2 conserved core (residues 36 to 367), purified and co-crystallized with cortisone (domain or fragment, rat, UniProt P62483 36-367, looked up)
chain: T1 sequence (looked up) with R176I
B3: W121A mutant Kvβ2, co-crystallized with cortisone (domain or fragment, rat, UniProt P62483 36-367, looked up)
chain: T1 sequence (looked up) with W86A, R176I
B4: I211R mutant Kvβ2, co-crystallized with 2 mM cortisone (domain or fragment, rat, UniProt P62483 36-367, looked up)
chain: T1 sequence (looked up)

What was measured:
[1] = biological target: T1, I211R mutant Kvβ2 expressed in complex …; experiment: pull-down
crystal structure = biological target: the molecule itself; experiment: crystal structure

Binder	binding result (crystal structure)	also measured
B1		binding result [1]: binds
B2		stoichiometry N (crystal structure): 4
B3	binds	
B4	binds	
